The target of assay [1] is recombinant macaque IgE (trastuzumab-IgE; anti-Her2-IgE) (macaque). Nature of the assay: SPR; Biacore X100, HBS-EP+ running buffer; Her2 amine-coupled on a CM5 chip, trastuzumab-IgE captured via Her2; anti-IgE as full-length IgG or Fab injected (1.56-25 nM or 1.56-50 nM), association 120 s, dissociation 300 s; 1:1 langmuir fit.
The target of assay [2] is recombinant human IgE (trastuzumab-IgE; anti-Her2-IgE) (human). The assay is described as above.
Assay [3] shares this target. Put plainly: SEC-MALS; trastuzumab-IgE mixed with anti-IgE IgG at different molar ratios. (In general: SEC sorts molecules by how far they enter the pores of the column.)

One may read the Kd as the equilibrium constant for the complex coming apart. Usually koff stands for the rate constant with which the complex falls apart. One may read the kon as the second-order rate constant of association.

On to Omalizumab Fab, for which, in assay [1], the Kd came out at 16.1 nM, the koff came out at 0.00811 s⁻¹ and the kon amounted to 504000 M⁻¹ s⁻¹. Moreover, in assay [2], the Kd was 14.6 nM, the koff worked out at 0.00614 s⁻¹ and the kon amounted to 420000 M⁻¹ s⁻¹.

As to Omalizumab full-length IgG (antibody), the stoichiometry N (4:4 (anti-IgE:IgE)) in assay [3] is 4. Also, the Kd in assay [1] is 0.0543 nM; in assay [2], 0.0594 nM.

The values above are taken from PMC13264800.
